Experimental findings from patent US20220089784A1 (University of California, published 2022) are described below.

Residue numbers refer to the chain shown, from its start.

First the molecules themselves.
T1: BoNT/C1 holotoxin (Clostridium botulinum, UniProt P18640 2-1291)
T1 sequence: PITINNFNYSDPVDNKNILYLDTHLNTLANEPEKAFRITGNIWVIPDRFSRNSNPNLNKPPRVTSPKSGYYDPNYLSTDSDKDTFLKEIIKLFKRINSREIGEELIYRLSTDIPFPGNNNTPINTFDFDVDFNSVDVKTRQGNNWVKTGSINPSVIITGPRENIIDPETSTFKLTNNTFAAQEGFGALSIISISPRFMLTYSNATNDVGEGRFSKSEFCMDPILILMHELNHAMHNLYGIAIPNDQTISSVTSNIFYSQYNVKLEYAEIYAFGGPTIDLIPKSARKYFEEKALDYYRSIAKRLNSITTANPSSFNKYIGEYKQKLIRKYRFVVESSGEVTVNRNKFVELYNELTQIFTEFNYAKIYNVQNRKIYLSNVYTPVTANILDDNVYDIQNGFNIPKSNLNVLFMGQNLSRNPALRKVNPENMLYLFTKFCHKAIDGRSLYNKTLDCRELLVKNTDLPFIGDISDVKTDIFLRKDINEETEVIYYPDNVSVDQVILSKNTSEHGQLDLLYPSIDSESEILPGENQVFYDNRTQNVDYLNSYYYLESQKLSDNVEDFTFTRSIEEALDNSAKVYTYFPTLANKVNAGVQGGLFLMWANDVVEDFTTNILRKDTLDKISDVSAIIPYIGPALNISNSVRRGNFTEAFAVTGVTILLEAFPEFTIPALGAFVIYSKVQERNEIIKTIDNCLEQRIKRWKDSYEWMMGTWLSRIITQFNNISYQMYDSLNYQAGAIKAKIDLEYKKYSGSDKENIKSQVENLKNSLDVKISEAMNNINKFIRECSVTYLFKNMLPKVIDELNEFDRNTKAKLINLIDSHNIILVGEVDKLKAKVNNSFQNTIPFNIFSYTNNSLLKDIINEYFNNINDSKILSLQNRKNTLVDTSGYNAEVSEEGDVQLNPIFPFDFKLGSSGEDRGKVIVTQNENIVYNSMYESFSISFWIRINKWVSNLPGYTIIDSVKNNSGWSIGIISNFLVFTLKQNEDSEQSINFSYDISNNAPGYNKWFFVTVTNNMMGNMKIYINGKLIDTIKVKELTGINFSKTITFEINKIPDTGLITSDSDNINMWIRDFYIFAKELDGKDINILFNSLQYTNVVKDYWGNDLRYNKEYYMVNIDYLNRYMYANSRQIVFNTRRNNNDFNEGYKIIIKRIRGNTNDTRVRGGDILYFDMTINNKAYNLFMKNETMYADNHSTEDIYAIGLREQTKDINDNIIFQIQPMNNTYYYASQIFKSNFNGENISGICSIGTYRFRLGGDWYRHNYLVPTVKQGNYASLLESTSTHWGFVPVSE

T2: BoNT/D (Clostridium botulinum, UniProt P19321 2-1276)
T2 sequence: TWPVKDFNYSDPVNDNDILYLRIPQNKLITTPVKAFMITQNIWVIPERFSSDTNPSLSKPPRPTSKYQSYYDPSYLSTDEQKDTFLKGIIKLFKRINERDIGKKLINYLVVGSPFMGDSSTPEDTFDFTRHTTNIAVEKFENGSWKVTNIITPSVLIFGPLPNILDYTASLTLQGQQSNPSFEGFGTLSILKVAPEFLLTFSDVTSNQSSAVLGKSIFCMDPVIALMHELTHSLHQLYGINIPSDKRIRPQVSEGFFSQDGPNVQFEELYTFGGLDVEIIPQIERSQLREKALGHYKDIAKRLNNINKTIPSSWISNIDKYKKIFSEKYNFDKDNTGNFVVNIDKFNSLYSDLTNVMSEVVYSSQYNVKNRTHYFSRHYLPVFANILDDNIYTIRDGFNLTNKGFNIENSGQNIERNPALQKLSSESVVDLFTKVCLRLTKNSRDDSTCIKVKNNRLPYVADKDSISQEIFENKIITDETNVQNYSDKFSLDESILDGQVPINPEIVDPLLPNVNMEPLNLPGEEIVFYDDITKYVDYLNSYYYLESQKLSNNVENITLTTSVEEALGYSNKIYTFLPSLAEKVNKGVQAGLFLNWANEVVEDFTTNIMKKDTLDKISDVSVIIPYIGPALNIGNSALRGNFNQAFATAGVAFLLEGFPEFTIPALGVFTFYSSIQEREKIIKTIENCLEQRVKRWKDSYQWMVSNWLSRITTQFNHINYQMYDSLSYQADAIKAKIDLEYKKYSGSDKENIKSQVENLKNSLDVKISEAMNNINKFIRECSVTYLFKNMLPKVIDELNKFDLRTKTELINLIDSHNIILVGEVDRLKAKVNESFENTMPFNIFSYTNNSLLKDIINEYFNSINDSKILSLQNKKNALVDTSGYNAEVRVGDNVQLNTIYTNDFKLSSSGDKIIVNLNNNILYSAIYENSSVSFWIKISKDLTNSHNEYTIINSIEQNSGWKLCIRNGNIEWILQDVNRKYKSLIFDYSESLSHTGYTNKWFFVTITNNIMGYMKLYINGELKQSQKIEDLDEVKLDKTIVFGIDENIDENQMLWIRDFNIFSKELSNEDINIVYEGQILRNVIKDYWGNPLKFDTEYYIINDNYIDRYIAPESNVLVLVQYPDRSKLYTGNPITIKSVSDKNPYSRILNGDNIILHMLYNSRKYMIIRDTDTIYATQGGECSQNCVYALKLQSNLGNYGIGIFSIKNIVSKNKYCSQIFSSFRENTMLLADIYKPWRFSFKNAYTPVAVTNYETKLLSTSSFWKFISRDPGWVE

B1: 8DC11 scFv (scFv, V domains shown)
VH: QVQLVESGPGLVKPSQTLSLSCTVSGGSVNHYYWNWIRQPPGKGLEWIGYIFYNGRTNYNPSLKSRVTMSVDTSKNQISLKLRSVTAADTAVYYCAREGARGYCSSTSCHDAFDIWGRGTLVTVSS
VL: EIVLTQSPSFLSASVGDRVTITCRASQGIRNDLAWFQQKPGKAPKLLIYATSTLQSGVPSRFSGSGSGTDFTLTISSLQPEDFADYYCQQAASFPLTFGGGTKVDIK
notes: human
B2: 8DC3.1 scFv (scFv, V domains shown)
VH: QVQLVQSRGGLVKPGGSLRLSCAASGFTFSSHSMNWVRQAPGKGLEWVSSISSSSSYIYYADSVKGRFTISRDNSKNSLYLQLNSLRAEDTAVYYCARDQGGGSVVGTNWFDPWGQGTLVTVSS
VL: SALTQPASVSGSPGQSVTISCTGTSSDVGGYNYVSWYQQHPGKAPKLMIYDVSKRPSGVPDRFSGSKSGNTASLTISGLQAEDEADYYCCSYAGRYTYVFGTGTKVTVL
notes: human
B3: 8DC10 scFv (scFv, V domains shown)
VH: QVQLVQSGAEAKKPGASVKLSCQASGYTFTGYAIHWVRQAPGQRLEWLGWINCVNGNTKYSPKLPGRVTITRDTSATTAYLELNSLTSEDTAVYYCARSMLVAARVYYYYGMDVWGQGTMVTVSS
VL: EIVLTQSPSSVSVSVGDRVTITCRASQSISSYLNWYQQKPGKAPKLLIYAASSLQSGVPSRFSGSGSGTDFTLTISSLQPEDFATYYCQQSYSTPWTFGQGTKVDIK
notes: human
B4: 8DC14 scFv (scFv, V domains shown)
VH: QVQLVQSGGGVVQPGRSLRLSCVASGFTFSSYTMHWVRQAPGEGLEWVAGISNDGRNQYYSDSVKGRATISRDNSKDTLYLQMHSLRAEDTAVYYCAKANYHFILATTFHSWGQGTLVTVSS
VL: DIVMTQSPSSVSASVGDRVTITCRASQGISSWLAWYQQKPGKAPKLLIYAASSLQSGVPSRFSGSGSGTDFTLTISRLQPEDVATYYCQRYNSLPFTFGGGTKLEIK
notes: human
B5: 8DC6 scFv (scFv, V domains shown)
VH: EVQMVESGGGVVQPGRSLRLSCAASGFTFTSYAMHWVRQAPGKGLEWVAMISNDESNTKYADSVKGRFTISRDNSKNTLFLQMNSLRAEDTAMYSCARGGYYTRPLAFDTWGPGTTVTVSS
VL: B4 VL with I2V, W32Y, A43V, S56R, R90K, L94A, F96L, L104V
notes: human
B6: 8DC12 scFv (scFv, V domains shown)
VH: QVQLVQSGGGVVQPGRSLRLSCAASGFTFSSYGMHWVRQAPGKGLEWVAAISYDGSNKYYADSVKGRFTISRDNSKNTLYLQMNSLRAEDTAVYYCAKGEHFVVVTAFATWGQGTLVTVSS
VL: DIVMTQSPSFLSASIGDRVTITCRASQSISNWLAWYQQKPGKAPKVLVYKASSLENGVPSRFSGSGSGTDFTLTITSLQPDDFATYYCQQYNAYPLTFGGGTKVEIK
notes: human
B7: 8DC8.6 scFv (scFv, V domains shown)
VH: QVQLQQSGPGLVKPSETLSLTCTVSGGSISSAGYSWSWIRQSPGKGLECLGYIYQTGSTFYNLSLKGRVTMSLDRSKNQISLRLTSVVAADTAVYYCARVVGVYPGWFDSWGQGTLVTVSS
VL: DIQMTQSPSSLSASVGDRVTITCRASQGVSTDLAWYQQKPGRAPKLLIYRASSLQSGVPSRFSGSGSGTDFTLTISSLQPDDLATYYCQHYESYSPWTFGQGTQGEIK
notes: human
B8: 8DC8.3 scFv (scFv, V domains shown)
VH: B7 VH
VL: DIVMTQSPSSLSASVGDRVTITCRASQSVSRWLAWYQQKPGKPPKLLIYEASSLESGVPSRFSGSGSGTDFTLTITSLQPEDFATYYCQQYENLPPSTFGGGTKLEIK
notes: human
B9: 8DC8 scFv (scFv, V domains shown)
VH: B7 VH
VL: DIVMTQSPSTLSASVGDRVTITCRASQSINIWMAWYQQKPGKAPKLLVYKASSLESGVPSRFSGSGSGTEFTLTISSLQPDDFATYYCQQYNSYGTFGKGTKVEIK
notes: human
B10: 8DC7 scFv (scFv, V domains shown)
VH: QVQLVQSGGRLVRPGGSLRLSCAASGFVFSNYGMHWVRQAPGKGLEWVAFLTHGGTNKYYSDSVKGRLTISRDNAKSTLFLEVNSLRVEDTAIYYCVKEGQLDSKYYFDSWGQGTLVTVSS
VL: EIVLTQSPSSLSASVGDRVTITCRASQSISSYLAWYQQKPGKAPELLIYAASTLQSGVPSRFSGSGSGTDFTLTISSVQPEDFATYYCQQSYSTPFTFGQGTKVEIK
notes: human
B11: 8DC13 scFv (scFv, V domains shown)
VH: QVQLVQSGAEVKKPGASVKVSCKASGYTFTGYYIHWVRQAPGQGLEWMGRINPNSGGANYAHKFQGRVTMTRDTSSNTAYMEVSRLKSDDTAVYYCARRRAVANLDYHYYGMDVWGQGTTVTVSS
VL: DIVMTQSPSTLSASVGARVTITCRASQNINTYLNWYHQKPGKAPKLLIYAASSLQSGVPSRFSGSGSGTDFTLTISSLQPEDFATYYCQQSYSTPHTFGGGTKLEIK
notes: human
B12: 8D2 scFv (scFv, V domains shown)
VH: QVQLVQSGAEVKKPGESLKISCKGSGYSFTSYWIGWVRQMPGKGLEWMGIIYPGDSDTRYSPSFQGQVTISADKSISTAYLQWSSLKASDTAMYYCVSYSSLDAFDIWGQGTMVTVSS
VL: EIVLTQSPSSLSASVGDRVTITCQASQDISNSLCWYQQKPGKAPKLLIYDASNLETGVPSRFSGSGSGTDFIFTISSLQPEDIATYYCQQYDNLLRVFGGGTKLEIK
notes: human

The first experiment concerns the target T1, BoNT/C1 holotoxin. The experiment is described as follows: yeast scFv FACS.
For B1, the binding result is on record as “no binding (tested: ~1 µM)”.
On to B2, for which the binding result is recorded as “no binding (tested: ~1 µM)”.
On the same count and under the same terms, the entry for B3 is “no binding (tested: ~1 µM)”; for B4 it is “no binding (tested: ~1 µM)”.
Same read-out and setting: then B5, with “no binding (tested: ~1 µM)”; and B6, with “no binding (tested: ~1 µM)”.
Still for that read-out and setting: the entry for B7 is “no binding (tested: ~1 µM)”.
On to B8, for which the binding result was “no binding (tested: ~1 µM)”.
The same measure, in the same setting: the entry for B9 is “no binding (tested: ~1 µM)”; for B10 it is “no binding (tested: ~1 µM)”.
Consider B11, for which the binding result was “no binding (tested: ~1 µM)”.
On the same count and under the same terms, then B12, with “no binding (tested: ~1 µM)”.

A further experiment has as its target T2, BoNT/D. Description: yeast scFv FACS.
On to B1, for which the binding result is “binds”.
Still for that read-out and setting: then B2, with “binds”; and B3, with “binds”.
On the same count and under the same terms, the entry for B4 is “binds”; for B6 it is “binds”; for B7 it is “binds”.
For B10, the binding result is reported as “binds”.
For B11, the binding result is reported as “binds”.
